Laboratory results taken from patent US20240270857A1 (CHIA TAI TIANQING PHARMACEUTICAL GROUP, published 2024).

T1: cynomolgus IL-36R overexpressed on 293T-CynoIL36R-NFκB cells (cynomolgus monkey)
T1 chain: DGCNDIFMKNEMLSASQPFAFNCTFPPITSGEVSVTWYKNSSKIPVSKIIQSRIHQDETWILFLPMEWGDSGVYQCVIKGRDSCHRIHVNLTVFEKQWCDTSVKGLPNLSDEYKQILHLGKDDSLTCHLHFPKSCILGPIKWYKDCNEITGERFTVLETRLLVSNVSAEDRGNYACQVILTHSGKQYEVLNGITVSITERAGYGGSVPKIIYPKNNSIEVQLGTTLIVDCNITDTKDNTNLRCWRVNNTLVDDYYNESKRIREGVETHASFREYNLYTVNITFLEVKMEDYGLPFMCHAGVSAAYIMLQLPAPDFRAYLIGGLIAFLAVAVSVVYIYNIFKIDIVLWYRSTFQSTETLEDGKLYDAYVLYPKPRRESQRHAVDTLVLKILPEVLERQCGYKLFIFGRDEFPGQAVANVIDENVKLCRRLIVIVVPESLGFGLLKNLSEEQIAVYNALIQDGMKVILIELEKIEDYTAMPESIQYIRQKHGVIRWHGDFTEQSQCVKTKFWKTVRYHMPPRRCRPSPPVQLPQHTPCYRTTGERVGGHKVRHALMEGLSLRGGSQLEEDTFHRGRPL

T2: human IL-36R overexpressed on 293T-hIL36R-NFκB cells (human, UniProt Q9HB29 20-575)
T2 construct: Entry includes the signal peptide; also called IL1RL2; IL-1Rrp2
T2 sequence: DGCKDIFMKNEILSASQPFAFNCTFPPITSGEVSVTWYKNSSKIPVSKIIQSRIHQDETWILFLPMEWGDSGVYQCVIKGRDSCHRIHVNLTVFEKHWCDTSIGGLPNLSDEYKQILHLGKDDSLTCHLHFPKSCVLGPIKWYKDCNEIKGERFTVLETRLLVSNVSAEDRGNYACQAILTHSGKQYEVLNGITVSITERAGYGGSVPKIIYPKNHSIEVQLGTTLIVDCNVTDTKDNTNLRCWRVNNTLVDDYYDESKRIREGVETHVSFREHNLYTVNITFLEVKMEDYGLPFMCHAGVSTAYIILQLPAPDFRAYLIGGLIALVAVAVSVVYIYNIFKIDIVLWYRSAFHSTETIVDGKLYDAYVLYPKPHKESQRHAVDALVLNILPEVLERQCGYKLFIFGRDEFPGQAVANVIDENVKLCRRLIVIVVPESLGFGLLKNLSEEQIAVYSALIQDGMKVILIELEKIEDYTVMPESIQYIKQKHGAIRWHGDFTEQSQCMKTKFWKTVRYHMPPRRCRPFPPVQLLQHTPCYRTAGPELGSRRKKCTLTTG

T3: IL-36R naturally expressed on OVCAR8 cells and on normal human epidermal keratinocytes (NHK cells) (human, UniProt Q9HB29 20-575)
T3 sequence (looked up): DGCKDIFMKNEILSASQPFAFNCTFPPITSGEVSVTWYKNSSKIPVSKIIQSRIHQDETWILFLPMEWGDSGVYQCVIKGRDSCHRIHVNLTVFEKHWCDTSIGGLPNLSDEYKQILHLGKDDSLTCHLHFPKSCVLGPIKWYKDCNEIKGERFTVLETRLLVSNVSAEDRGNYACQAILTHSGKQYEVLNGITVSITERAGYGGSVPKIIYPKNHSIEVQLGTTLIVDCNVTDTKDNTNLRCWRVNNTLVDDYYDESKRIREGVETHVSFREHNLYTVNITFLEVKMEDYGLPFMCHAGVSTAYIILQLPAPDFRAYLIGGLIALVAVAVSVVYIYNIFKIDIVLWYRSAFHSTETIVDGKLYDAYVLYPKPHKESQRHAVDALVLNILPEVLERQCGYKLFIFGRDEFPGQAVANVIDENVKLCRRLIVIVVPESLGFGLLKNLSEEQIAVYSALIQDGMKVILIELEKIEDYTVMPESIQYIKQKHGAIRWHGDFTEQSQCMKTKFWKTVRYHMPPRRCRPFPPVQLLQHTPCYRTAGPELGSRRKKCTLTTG

T4: Human IL-1Rrp2/IL-1R6 protein, His Tag (ACROBiosystems, IL2-H52H6) (human, UniProt Q9HB29 20-335)
T4 construct: Bought protein; the soluble protein is likely only the extracellular part; also called hIL-36R; human IL36R antigen; not shown: His tag
T4 sequence: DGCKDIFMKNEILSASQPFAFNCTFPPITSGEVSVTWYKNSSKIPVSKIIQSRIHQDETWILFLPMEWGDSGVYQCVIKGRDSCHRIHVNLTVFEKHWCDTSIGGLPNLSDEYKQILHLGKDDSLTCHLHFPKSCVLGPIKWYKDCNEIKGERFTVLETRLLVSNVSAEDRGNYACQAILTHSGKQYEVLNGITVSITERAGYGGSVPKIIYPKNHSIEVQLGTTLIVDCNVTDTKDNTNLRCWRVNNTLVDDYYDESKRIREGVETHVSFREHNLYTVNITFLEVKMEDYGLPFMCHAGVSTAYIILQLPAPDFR


Key:
[1] = biological target: T1, cynomolgus IL-36R overexpressed on …; experiment: cell-based or functional assay
[2] = biological target: T2, human IL-36R overexpressed on …; experiment: FACS on 293T-hIL36R-NFκB cells, ratio of MFI to background MFI
Procedure: (§1) After the cells was washed with PBS, the cells were resuspended with 100 μL of PBS and then the fluorescence signal was detected using a flow cytometer (BD, Accuri C6). […] The ratio was the ratio of mean fluorescence intensity (MFI) of the experimental group/the background MFI, and the resulting data were analyzed using GraphPad Prism.

[3] = biological target: T3, IL-36R naturally expressed on OVCAR8 …; experiment: cell-based or functional assay
[4] = biological target: T4, Human IL-1Rrp2/IL-1R6 protein, His Tag …; experiment: ELISA, plate coated with human IL-1Rrp2/IL-1R6 His Tag, HRP-protein A/G, OD450
Procedure: The binding activity of anti-IL-36R antibodies to IL-36R was analyzed by ELISA using human IL-1Rrp2/IL-1R6 protein, His Tag (ACROBiosystems, IL2-H52H6) and CynoIL36R-ECD mFc (for detection of chimeric and humanized antibodies), and hIL36R-ECD hFc and CynoIL36R-ECD hFc protein (for detection of hybridoma antibodies) as antigens. A 96-well plate (Costar, 9018) was coated with 2 μg/mL antigen at 100 μL/well and incubated overnight at 4° C. After the 96-well plate was washed with a washing buffer (PBS containing 0.05% v/v Tween 20), a blocking buffer (PBS containing 2% bovine serum albumin) was added for blocking at 37° C. for 2 h. After the 96-well plate was washed with the washing buffer, 100 μL of the gradient diluted anti-IL-36R antibody of the present disclosure or the reference antibody BI655130 (the initial concentration of the antibody was 66 nM, 4-fold gradient dilution) was added to each well, and the plate was incubated at room temperature for 1 h. After the 96-well plate was washed with the washing buffer, 100 μL of horseradish peroxidase-conjugated recombinant protein A/G (TheroScientific, 32490) was added to each well, and the plate was incubated at room temperature for 1 h. After the 96-well plate was washed with the washing buffer, 100 μL of a TMB solution (Thermo, 00-4201-56) was added to each well, and the plate was incubated at room temperature for 2 min. Finally, 100 μL of a stop solution (2 N H₂SO₄) was added to each well to stop the reaction. Absorbance was read at 450 nm using a microplate reader (PE, Envision), the resulting data was analyzed using GraphPad Prism, and EC₅₀ was calculated. Binding EC₅₀ of the chimeric anti-IL-36R antibodies to hIL-36R in an ELISA assay is shown in FIG. 1. and binding EC₅₀ of the chimeric anti-IL-36R antibodies to CynoIL-36R in an ELISA assay is shown in FIG. 2. The binding of BI655130 is shown as a control, and the binding of IgG4 is shown as a negative control.

[5] = biological target: T1, cynomolgus IL-36R overexpressed on …; experiment: FACS on 293T-CynoIL36R-NFκB cells, ratio of MFI to background MFI
Procedure: as §1

| Binder | IC50 (M); hIL36α; NFκB-luciferase [1] | IC50 (M); hIL36β; NFκB-luciferase [1] | IC50 (M); hIL36γ; NFκB-luciferase [1] | Maximum inhibition rate %; hIL36α; NFκB-luciferase [1] | Maximum inhibition rate %; hIL36β; NFκB-luciferase [1] | Maximum inhibition rate %; hIL36γ; NFκB-luciferase [1] | EC50 [2] | IC50; IL-8 production of NHK cells stimulated with hIL36γ, inhibition rate % [3] | EC50 [4] | EC50 [5] |
| --- | --- | --- | --- | --- | --- | --- | --- | --- | --- | --- |
| BI655130 (antibody, human IgG1, kappa, L234A L235A, also called Spesolimab) heavy: not shown light: QIVLTQSPGTLSLSPGERATMTCTASSSVSSSYFHWYQQKPGQAPRLWIYRTSRLASGVPDRFSGSGSGTDFTLTISRLEPEDAATYYCHQFHRSPLTFGAGTKLEIKRTVAAPSVFIFPPSDEQLKSGTASVVCLLNNFYPREAKVQWKVDNALQSGNSQESVTEQDSKDSTYSLSSTLTLSKADYEKHKVYACEVTHQGLSSPVTKSFNRGEC | 2.77e-08 M | 5.63e-08 M | 1.19e-08 M | 49.1% | 60.8% | 83.1% | 1.33 nM | 0.0387 nM | 0.761 nM | 9.64 nM |
| chimeric 84C4 antibody (antibody, human IgG4 S228P, kappa, Mouse variable regions on human IgG4 / kappa; also called xi84C4) heavy: not shown light: DILMTQSPSSLSASLGERVSLTCRASQDIGNALNWLQQAPDGTIKRLIYATSSLDPGVPKRFSGSRSGSDYSLTISSLASEDFVYYYCLQYASSPYTFGGGTKLEIKRTVAAPSVFIFPPSDEQLKSGTASVVCLLNNFYPREAKVQWKVDNALQSGNSQESVTEQDSKDSTYSLSSTLTLSKADYEKHKVYACEVTHQGLSSPVTKSFNRGEC |  |  |  |  |  |  | 0.886 nM | 0.125 nM | 0.97 nM | 36.6 nM |
| chimeric 72C1 antibody (antibody, human IgG4 S228P, kappa, Mouse variable regions on human IgG4 / kappa; also called xi72C1) heavy: not shown light: EILLTQSPAIMSATLGEKVTMSCRASSNVRYMYWYQLKSGASPKLWIYLTSNLASGVPARFSGSGSGTSYSLTISSVEAEDAATYFCQQFTTSPYTFGGGTKLEIKRTVAAPSVFIFPPSDEQLKSGTASVVCLLNNFYPREAKVQWKVDNALQSGNSQESVTEQDSKDSTYSLSSTLTLSKADYEKHKVYACEVTHQGLSSPVTKSFNRGEC |  |  |  |  |  |  | 2.52 nM | 0.0486 nM | 2.62 nM | 8.96 nM |
| hz72C1-1.1 (antibody, human IgG4 S228P, kappa, Humanized, human IgG4 / kappa; also called humanized 72C1 antibody 1.1) heavy: not shown light: DIQMTQSPSSLSASVGDRVTITCRASSNVRYMYWYQQKPGKAPKLWIYLTSNLASGVPSRFSGSGSGTSYTLTISSLQPEDFATYYCQQFTTSPYTFGQGTKLEIKRTVAAPSVFIFPPSDEQLKSGTASVVCLLNNFYPREAKVQWKVDNALQSGNSQESVTEQDSKDSTYSLSSTLTLSKADYEKHKVYACEVTHQGLSSPVTKSFNRGEC | 3.15e-09 M | 3.09e-09 M | 1.66e-09 M | 101% | 100% | 104% |  |  |  |  |
| hz72C1-1.3 (antibody, human IgG4 S228P, kappa, Humanized, human IgG4 / kappa) heavy: not shown light: DIQMTQSPSSLSASVGDRVTITCRASSNVRYMYWYQQKPGKAPKLWIYLTSNLASGVPSRFSGSGSGTSYTLTISSLQPEDFATYYCQQFTTSPYTFGQGTKLEIKRTVAAPSVFIFPPSDEQLKSGTASVVCLLNNFYPREAKVQWKVDNALQSGNSQESVTEQDSKDSTYSLSSTLTLSKADYEKHKVYACEVTHQGLSSPVTKSFNRGEC | 3.13e-09 M | 2.7e-09 M | 1.65e-09 M | 101% | 101% | 103% |  |  |  |  |
